The target of experiment [1] is T1, human D2H transporter receptor domain, amino acid residues 387-685, His-tag fusion protein (human), Q07837.
T1 chain: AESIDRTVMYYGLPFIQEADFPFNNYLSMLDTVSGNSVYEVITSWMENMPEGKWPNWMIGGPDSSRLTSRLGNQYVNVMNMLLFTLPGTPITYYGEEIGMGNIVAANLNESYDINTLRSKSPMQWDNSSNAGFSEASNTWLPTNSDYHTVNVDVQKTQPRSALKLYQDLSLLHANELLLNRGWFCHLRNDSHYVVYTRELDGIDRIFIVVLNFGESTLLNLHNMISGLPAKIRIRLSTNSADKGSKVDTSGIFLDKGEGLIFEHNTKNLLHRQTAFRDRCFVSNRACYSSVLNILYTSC
Briefly: phage ELISA, coated D2H domain.

Experiment [2] has as its target T1, human D2H transporter receptor domain, …. Put plainly: phage ELISA, OD on D2H over OD on BSA. (In general: ELISA stands for enzyme-linked immunosorbent assay.)
The target in experiment [3] is T2, human sucrase-isomaltase complex (hSI) receptor domain, amino acid residues 272-667, His-tag fusion protein (human), P14410. Put plainly: phage ELISA, coated hSI domain.
Experiment [4] deals with T2, human sucrase-isomaltase complex (hSI) …. Briefly: phage ELISA, OD on hSI over OD on BSA.

T2 sequence (P14410 272-667, one chain of several): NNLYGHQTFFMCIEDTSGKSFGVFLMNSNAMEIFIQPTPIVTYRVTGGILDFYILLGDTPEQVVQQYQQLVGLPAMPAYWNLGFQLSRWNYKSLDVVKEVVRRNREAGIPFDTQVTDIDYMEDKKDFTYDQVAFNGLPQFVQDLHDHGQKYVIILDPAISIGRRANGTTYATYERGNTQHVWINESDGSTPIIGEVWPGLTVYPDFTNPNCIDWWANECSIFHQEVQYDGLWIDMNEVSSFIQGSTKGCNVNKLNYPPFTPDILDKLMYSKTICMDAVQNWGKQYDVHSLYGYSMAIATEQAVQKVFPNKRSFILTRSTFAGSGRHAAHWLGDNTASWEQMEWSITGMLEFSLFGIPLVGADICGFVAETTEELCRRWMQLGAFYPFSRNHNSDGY

Regarding SWSSWNWSSKTTRLGDRATREGCGPSQSDGCPYNGRLTTVKPRT (modifications not checked) [phage DCX36], in experiment [1], the OD was 0.293 OD 650 nm. In addition, the D2H/BSA in experiment [2] was found to be 5.

On to SPRSFWPVVSRHESFGISNYLGCGYRTCISGTMTKSSPIYPRHS (modifications not checked) [phage S21], for which the OD in experiment [3] was 0.845 OD 650 nm. Moreover, in experiment [4], the hSI/BSA came out at 9.

The values above are taken from patent publication US7135457.
